B1: TPR t1 (parent)
chain: GACCAAUCUGCCCUCAGAGCUCGAGAACAUCUUCGGAUGCAGAGGAGGCAGGCUUCGGUGGCGCGAUAGCGCCAACGUCCUCAACCUCCAAUGCAUCCCACCACAUGAUGAUGCCUGAAGAGCCUUGGUUUUUUG

Variants of: B1
Experiment: polymerase ribozyme fitness, log enrichment relative to wild type (log ratio); higher = more active; in vitro selection for triplet polymerase activity
Summary of the method: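 To select mutant libraries of each subunit of a heterodimeric triplet polymerase ribozyme, built by PCR and transcribed, each was annealed with a biotinylated primer, partner subunit and triplets, then incubated frozen at −7 °C. Extended constructs were gel-excised, captured on streptavidin beads and amplified by RT-PCR, in one round carried out in triplicate. Illumina sequencing of input and output libraries kept genotypes with ≥10 input reads and ≥1 read per output. Fitness is the base-2 logarithm of genotype enrichment relative to wild-type enrichment, from inverse-variance-weighted replicate averages.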

Row | Variant | polymerase ribozyme fitness (log ratio)
1 | U81C C82A C98U | -3.03
2 | A83G G110A | -1.35
3 | A84U C86A U125G | -1.97
4 | C85G C99U | -4.35
5 | C85A G122A | -1.14
6 | U78G C102G | -4.94
7 | C85G C88U | -0.339
8 | C76U G117C | -3.98
9 | C76A C89A | -3.18
10 | U81G A84C G113A | -3.43
11 | A83U C101G | -1.74
12 | U78C G110C | -3.67
13 | U78C C80U C89U G117C A119G | -1.72
14 | U78G G120A | 0.634
15 | C76U A111U | -3.86
16 | C82A G93A | -0.17
17 | A83U G113C G120U U132A | -4.48
18 | G77C C89U G128C | -3.81
19 | A74U G120U | -0.788
20 | A74C U109A | -5.88
21 | C79U A121C | 1.81

Row | Variant | polymerase ribozyme fitness (log ratio)
22 | G77A G120U | -0.0426
23 | C82G A84G | -0.89
24 | C79U C114A | -0.742
25 | G77C G110U | -1.93
26 | U81A G113C U130G U132A | -3.31
27 | C76G C102U C104A | -1.03
28 | A83G C86G G127U U132C | -2.25
29 | U81A A105U U132C | -2.04
30 | C82A G93C C97U G113U | -4.46
31 | C76A G110A C115A | -2.95
32 | A83C A84C | -0.925
33 | C80A C124A | -0.56
34 | G77U C94U C102A C115A | -2.01
35 | C80U G120U U129G | -0.816
36 | C82G A90U | -2.11
37 | C82U A90U C97U A118G | -2.4
38 | U78C C123A | 0.196
39 | C82A C98A C114U | -5.87
40 | C82G C101U C115A U125A | -1.73
41 | U78A U96C | -0.338
42 | U81A A121C | 0.745

Row | Variant | polymerase ribozyme fitness (log ratio)
43 | C85G G110C | -4.96
44 | C85G A111C | -3.12
45 | U78G A95C | -0.597
46 | C76U C86U A91U | -3.49
47 | C79G G93U C115G | -4.32
48 | C82U U112A U130G | 0.499
49 | A74G U112A U126A | 0.303
50 | C82G G120U | -0.592
51 | C82G G120A | -0.124
52 | C82U U96G G127U | -1.83
53 | C85U C94U | -1.2
54 | C80G C124A | -5.18
55 | C80A G113A G135A | -3.66
56 | C76U U125A | -0.353
57 | G77U U78C U87G A121U U130G | 2.02
58 | G77C G122A U130A | -1.41
59 | C79U C80U U116C | -4.27
60 | C80U G135U | -0.986
61 | G77A C98U U126C U130C | -1.62
62 | C80U G120C G127C | -0.289
63 | A74G C80U | -1.69

Row | Variant | polymerase ribozyme fitness (log ratio)
64 | A84G G120A | -0.185
65 | U81C G93A C123A | -0.322
66 | C79A C82U | -0.745
67 | C85G U106G | -2.45
68 | U78C A83U C115A | -0.234
69 | C80U A121U | 1.34
70 | A84U G93A C115G | -2.08
71 | C76U C82A C88U | -1.25
72 | A83C C89U A95C | -0.794
73 | U81G C88A | -2.78
74 | A74U C80U C82G | -0.403
75 | C79G C102U | -4.67
76 | C76G A90C | -0.998
77 | C79A A83G C115G C123A U131G | -4.48
78 | A83U C89A U96A | -2.34
79 | U78A C114G | -2.43
80 | U78G U116A | -3
81 | U78C U112A C114G | -0.26
82 | C79A G110A | -2.55
83 | A75G U112A | 1.59
84 | A75U C76U | -1.57
